Source: patent US12077763B2, “RNA-based control of powdery mildew” (Greenlight Biosciences, Inc., priority 2021, dated 2024)

Tests used:
E. necator [1] = experiment: Leaf disc assay, dry inoculum (settling tower), decrease in disease severity / hyphal growth (Example 2); details: decrease in disease severity (hyphal growth) relative to untreated control, value ± SE
E. necator [2] = experiment: Greenhouse trial, powdery mildew on grapes, AUDPC of disease incidence and severity (Example 4); type: in vivo, E. necator in grapes
Method: A greenhouse trial was performed to evaluate the efficacy of ES43 dsRNA for controlling E. necator in grapes compared with commercial fungicides (Luna Experience/Pristina) and biofungicides (Regalia Biofungicide/Double Nickel).
Disease incidence was calculated based on the total number of leaves on the plant infected with powdery mildew, out of number of leaves present. Disease severity was calculated based on the percent (%) leaf surface infected overall for each plant. Area under the disease progress curve (AUDPC) was then calculated throughout the entire trial period (FIGS. 5 and 6).

E. necator [3] = experiment: Leaf disc assay, wet inoculum (conidial suspension), disease severity by automated phenotyping (Example 1)
Cyp51 transcripts = experiment: Gene specific qRT-PCR of ES43 (Cyp51) transcripts in leaf discs (Example 3); type: in vivo, E. necator
Method: FIG. 3. Gene specific qRT-PCR analysis of ES43 (Cyp51) transcripts at 6-dpi in leaf discs. Two housekeeping genes (GDP1 and TEF1) were used as endogenous references to examine the expression of Cyp51. Gene expression was normalized to the untreated control. Statistical significance at p<0.01, Mann-Whitney U test.
qRT-PCR was performed to validate the effect of exogenous dsRNA on the expression of selected targeted genes for which activity of dsRNA had been shown by leaf assay (as described in Example 2). Samples were treated with dsRNA, inoculated after 24 hours and six leaf discs per treatment were collected at six-days post inoculation (dpi) for further analysis.

E. necator [4] = experiment: Field trial, natural infestation on Chardonnay grapes, leaf disease incidence (Example 5); type: in vivo, E. necator on Chardonnay grapes; details: FIG. 7
Method: A field trial was conducted in ACDS Research vineyard (Dundee, New York) with natural disease infestation on grapes. The trial was set up in four rows (180 ft^2) of Chardonnay grapes, with plots consisting of four vines. The trial included 11 treatments (Table 5), each replicated four times. The grower spray program from budbreak through pre-bloom consisted of sulfur, and trial applications were initiated at bloom. Eight to fifteen applications of ES43 (6.25, 25, 50 and 100 g Ai/ha) were compared with Regalia (470 g Ai/ha) and DoubleNickel (10 billion Cfu/ml), Pristine (333 g Ai/ha) Rally 40 WSP (140 g Ai/ha) and Luna Experience (250 g Ai/ha). Disease incidence, total number of leaves infected out of number of leaves present on several branches, Weekly assessments was performed 1 day before ES43 applications. Data was collected one week after the last application for all treatments at the close of the experiment.
Disease incidence was calculated based on number of leaves infected with powdery mildew out of 20 total leaves.

B1: ES43: 497 bp Cyp51-dsRNA, trigger SEQ ID NO 108; gene target Cytochrome P450 (nucleic acid)
DNA: TCTTACCATGAAGCGTTCCATTCCTATGTAACAATAATACAAAATGAAGTAGAGGCATATATAAACAATTGCGTTAGCTTTCAGGGTGAGAGTGGCACAGTAAACATCTCAAAAGTTATGGCGGAAATCACTATATATACTGCTTCACATGCCTTACAAGGAGAAGAGGTCCGTGAGAATTTTGACTCATCTTTTGCCGCTCTTTATCATGATCTTGATATGGGATTTACACCGATCAACTTTACATTTTACTGGGCACCTCTACCTTGGAATCGTGCTCGTGATCATGCCCAAAGAACTGTTGCTAGGACTTATATGAATATAATCCAAGCTCGTAGAGAAGAGAAAAGAAGCGGTGAGAATAAGCATGATATAATGTGGGAGTTGATGCGTTCCACTTATAAAGACGGGACTCCGGTACCTGATCGAGAGATAGCGCATATGATGATAGCCCTTCTGATGGCTGGACAACACTCTTCGTCATCCACGAGCTCATG
- % decrease =/− SE TP1 (E. necator [1]; time point 1 (untreated control hyphal growth ≥50%)): 41 ± 3%
- % decrease =/− SE TP2 (E. necator [1]; time point 2): 28 ± 5%
- AUDPC based on disease severity vs. untreated control (E. necator [2]; FIG. 6): significantly decreased severity
- reduction in disease incidence, twice per week vs once per week (E. necator [2]; twice per week applications at the same rate, numerically): greater reduction in disease incidence compared to once per week applications at the same rate
- AUDPC based on disease severity, compared with commercial fungicide and biofungicides (E. necator [2]; weekly and twice-per-week spray interval, FIG. 6): performed similarly to commercial fungicide and biofungicides
- AUDPC based on disease incidence (E. necator [2]; weekly spray interval, all rates (6.25-100 g ai/ha), FIG. 5): reduced powdery mildew AUDPC incidence with all rates similar to or better than the biofungicide standard
- LSMeans difference (Dunnett's), disease severity (E. necator [3]; Run1, ES43 10 ppm vs negative control GS4 25 ppm): −61.5000
- LSMeans difference (Dunnett's), disease severity (E. necator [3]; Run1, ES43 25 ppm vs negative control GS4 25 ppm): −49.1667
- LSMeans difference (Dunnett's), disease severity (E. necator [3]; Run 2, ES43 10 ppm vs negative control GS4 25 ppm): 10.0000
- LSMeans difference (Dunnett's), disease severity (E. necator [3]; Run 2, ES43 25 ppm vs negative control GS4 25 ppm): −26.3750
- LSMeans difference (Dunnett's), disease severity (E. necator [3]; Run 3, ES43 10 ppm vs negative control GS145 25 ppm): −24.0000
- LSMeans difference (Dunnett's), disease severity (E. necator [3]; Run 3, ES43 25 ppm vs negative control GS145 25 ppm): −17.0625
- powdery mildew development on leaf disks (E. necator [3]; nine-dpi, 10 and 25 ppm, compared to untreated and non-dsRNA targets): significant decrease of powdery mildew development
- fungal growth determined by disease severity (FIG. 1) (E. necator [3]; three individual runs combined, 10 and 25 ppm, vs controls GS145 or GS4 (p<0.01)): Significant decrease of fungal growth
- reduction of relative amounts of ES43 (Cyp51) transcripts (Cyp51 transcripts; 6-dpi, compared to untreated control, FIG. 3): up to 70%
- gene silencing in E. necator by sprayed dsRNA (Cyp51 transcripts; qRT-PCR, six-days post inoculation): Induced Gene Silencing
- leaf disease incidence (E. necator [4]; 6.25 g Ai/ha, 7-day and twice a week (3/4-day), 57 days after initial treatments): significantly decreased disease incidence
- leaf disease incidence (E. necator [4]; 50 g Ai/ha, compared to untreated control): decreased incidence compared to untreated control
